Source: patent US20250326841A1

Assays:
[1] = molecular target: mouse TIM-3, membrane bound (mouse) (UniProt Q8VIM0); experiment: binding to activated mouse T cells; method not described
[2] = molecular target: mouse TIM-3, membrane bound (mouse) (UniProt Q8VIM0); experiment: binding to activated mouse T cells, compared with TIM3.18 binding to human TIM-3; method not described

Chain of mouse TIM-3, membrane bound (mouse) (Q8VIM0 20-281): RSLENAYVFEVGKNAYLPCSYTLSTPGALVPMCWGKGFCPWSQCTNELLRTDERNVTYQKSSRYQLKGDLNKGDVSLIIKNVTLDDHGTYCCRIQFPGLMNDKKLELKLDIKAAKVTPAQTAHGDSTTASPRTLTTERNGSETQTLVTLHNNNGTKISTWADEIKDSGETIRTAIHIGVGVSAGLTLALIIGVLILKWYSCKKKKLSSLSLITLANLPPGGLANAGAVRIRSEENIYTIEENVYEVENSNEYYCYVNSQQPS

RMT3-23, rat anti-mouse TIM-3 antibody (Bio-X-Cell)
EC50 [1]: 1.7 nM
fold weaker EC50 than TIM3.18 on human TIM-3 [2]: 17 fold
